Laboratory results from the Immune Epitope Database (IEDB).
pKd: −log10 of the molar value. Blank lines part the entries; values can stand above or below the sequence they belong to.

Columns and labels:
HLA-C*06:02 = test: IEDB peptide-MHC binding, purified MHC/direct/fluorescence; filed as Kd, often an IC50 or EC50 that approximates it; ≥ and ≤ were set here for values at or beyond the usual limits of such assays; conditions: source organism: Listeria monocytogenes serotype 1/2a str. F6854
HLA-C*07:02 = test: as above
HLA-C*15:02 = test: as above; conditions: source organism: Listeria monocytogenes serotype 1/2a str. F6854
HLA-B*46:01 = test: IEDB peptide-MHC binding, purified MHC/competitive/fluorescence; filed as Kd, often an IC50 or EC50 that approximates it; ≥ and ≤ were set here for values at or beyond the usual limits of such assays; conditions: source organism: Listeria monocytogenes serotype 1/2a str. F6854
HLA-A*01:01 = test: IEDB peptide-MHC binding, purified MHC/direct/fluorescence; filed as Kd, often an IC50 or EC50 that approximates it; ≥ and ≤ were set here for values at or beyond the usual limits of such assays
HLA-A*02:01 = test: as above
HLA-A*03:01 = test: as above; conditions: source organism: Influenza A virus (A/chicken/Hubei/wk/1997(H5N1))
HLA-A*31:01 [1] = test: as above
HLA-A*68:02 [2] = test: as above
HLA-A*69:01 = test: as above
HLA-B*07:02 = test: as above
HLA-B*08:01 = test: as above
HLA-B*15:01 [3] = test: as above
HLA-B*48:01 = test: as above
HLA-B*57:01 = test: as above
HLA-B*58:01 = test: as above
HLA-B*73:01 = test: as above; conditions: source organism: Influenza A virus (A/chicken/Hubei/wk/1997(H5N1))
HLA-A*11:01 [4] = test: IEDB peptide-MHC binding, purified MHC/competitive/fluorescence; filed as Kd, often an IC50 or EC50 that approximates it; ≥ and ≤ were set here for values at or beyond the usual limits of such assays
HLA-A*30:01 = test: as above
HLA-B*15:17 [5] = test: as above
HLA-B*18:01 [6] = test: as above
HLA-A*11:01 [7] = test: IEDB peptide-MHC binding, purified MHC/direct/fluorescence; filed as Kd, often an IC50 or EC50 that approximates it; ≥ and ≤ were set here for values at or beyond the usual limits of such assays
HLA-A*26:02 [8] = test: as above; conditions: source organism: Giardia lamblia ATCC 50803
HLA-A*26:03 = test: as above; conditions: source organism: Giardia lamblia ATCC 50803
HLA-B*08:02 = test: as above; conditions: source organism: Giardia lamblia ATCC 50803
HLA-B*08:03 = test: as above
HLA-B*15:17 [9] = test: as above
HLA-B*18:01 [10] = test: as above; conditions: source organism: Giardia lamblia ATCC 50803
HLA-B*27:05 = test: as above; conditions: source organism: Giardia lamblia ATCC 50803
HLA-B*39:01 [11] = test: as above
HLA-B*40:01 = test: as above; conditions: source organism: Giardia lamblia ATCC 50803
HLA-A*24:03 = test: as above; conditions: source organism: Camelpox virus M-96
HLA-A*02:06 = test: IEDB peptide-MHC binding, purified MHC/competitive/fluorescence; filed as Kd, often an IC50 or EC50 that approximates it; ≥ and ≤ were set here for values at or beyond the usual limits of such assays; conditions: source organism: Vaccinia virus WR
HLA-A*26:02 [12] = test: as above
HLA-A*31:01 [13] = test: as above
HLA-A*68:02 [14] = test: as above; conditions: source organism: Vaccinia virus WR
HLA-B*39:01 [15] = test: as above; conditions: source organism: Vaccinia virus WR
HLA-B*15:09 = test: IEDB peptide-MHC binding, purified MHC/direct/fluorescence; filed as Kd, often an IC50 or EC50 that approximates it; ≥ and ≤ were set here for values at or beyond the usual limits of such assays; conditions: source organism: Variola virus
HLA-C*14:02 = test: as above; conditions: source organism: Vaccinia virus Copenhagen
HLA-A*02:03 = test: IEDB peptide-MHC binding, purified MHC/competitive/fluorescence; filed as Kd, often an IC50 or EC50 that approximates it; ≥ and ≤ were set here for values at or beyond the usual limits of such assays; conditions: source organism: Vaccinia virus Copenhagen
HLA-B*15:01 [16] = test: as above; conditions: source organism: Vaccinia virus Copenhagen
HLA-A*68:23 = test: as above; conditions: source organism: Homo sapiens
HLA-B*15:42 = test: as above; conditions: source organism: Homo sapiens
HLA-B*45:06 = test: as above; conditions: source organism: Homo sapiens
HLA-B*83:01 = test: as above; conditions: source organism: Homo sapiens
[17] = source organism: Influenza A virus (A/chicken/Hubei/wk/1997(H5N1))
[18] = source organism: Influenza A virus H3N2
[19] = source organism: Giardia lamblia ATCC 50803
[20] = source organism: Camelpox virus M-96
[21] = source organism: Vaccinia virus WR
[22] = source organism: Vaccinia virus Copenhagen

Sequence: KMIGNLLSF
- pKd (HLA-C*06:02): ≤ 4.70
- pKd (HLA-C*07:02; source organism: Listeria monocytogenes serotype 1/2a str. F6854): 6.18
- pKd (HLA-C*15:02): 5.59
- pKd (HLA-B*46:01): 5.96

Sequence: MKWMMAMKY
- pKd (HLA-A*01:01; [17]): ≤ 4.70
- pKd (HLA-A*02:01; [17]): ≤ 4.70
- pKd (HLA-A*03:01): ≤ 4.70
- pKd (HLA-A*31:01 [1]; [17]): ≤ 4.70
- pKd (HLA-A*68:02 [2]; [17]): ≤ 4.70
- pKd (HLA-A*69:01; [17]): ≤ 4.70
- pKd (HLA-B*07:02; [17]): ≤ 4.70
- pKd (HLA-B*08:01; source organism: Influenza A virus(A/swine/Shandong/fNY/2003(H9N2))): ≤ 4.70
- pKd (HLA-B*15:01 [3]; [17]): ≤ 4.70
- pKd (HLA-B*48:01; [17]): ≤ 4.70
- pKd (HLA-B*57:01; [17]): ≤ 4.70
- pKd (HLA-B*58:01; [17]): ≤ 4.70
- pKd (HLA-B*73:01): ≤ 4.70
- pKd (HLA-A*11:01 [4]; [18]): ≤ 4.70
- pKd (HLA-A*30:01; [18]): 5.97
- pKd (HLA-B*15:17 [5]; [18]): 6.04
- pKd (HLA-B*18:01 [6]; [18]): 6.01

Sequence: RENQVAVVR
- pKd (HLA-A*01:01; [19]): ≤ 4.70
- pKd (HLA-A*02:01; [19]): ≤ 4.70
- pKd (HLA-A*11:01 [7]; [19]): ≤ 4.70
- pKd (HLA-A*26:02 [8]): ≤ 4.70
- pKd (HLA-A*26:03): ≤ 4.70
- pKd (HLA-A*31:01 [1]; [19]): ≤ 4.70
- pKd (HLA-A*68:02 [2]; [19]): ≤ 4.70
- pKd (HLA-A*69:01; [19]): ≤ 4.70
- pKd (HLA-B*07:02; [19]): ≤ 4.70
- pKd (HLA-B*08:01; [19]): ≤ 4.70
- pKd (HLA-B*08:02): ≤ 4.70
- pKd (HLA-B*08:03; [19]): ≤ 4.70
- pKd (HLA-B*15:17 [9]; [19]): ≤ 4.70
- pKd (HLA-B*18:01 [10]): ≤ 4.70
- pKd (HLA-B*27:05): ≤ 4.70
- pKd (HLA-B*39:01 [11]; [19]): ≤ 4.70
- pKd (HLA-B*40:01): ≤ 4.70
- pKd (HLA-B*48:01; [19]): ≤ 4.70
- pKd (HLA-B*57:01; [19]): ≤ 4.70
- pKd (HLA-B*58:01; [19]): ≤ 4.70

Sequence: NYFNRMFHF
- pKd (HLA-A*01:01; [20]): ≤ 4.70
- pKd (HLA-A*02:01; [20]): ≤ 4.70
- pKd (HLA-A*24:03): 8.37
- pKd (HLA-A*69:01; [20]): ≤ 4.70
- pKd (HLA-B*07:02; [20]): ≤ 4.70
- pKd (HLA-B*15:01 [3]; [20]): ≤ 4.70
- pKd (HLA-B*15:17 [9]; [20]): ≤ 4.70
- pKd (HLA-B*57:01; [20]): ≤ 4.70
- pKd (HLA-B*58:01; [20]): ≤ 4.70
- pKd (HLA-C*07:02; [21]): 8.52
- pKd (HLA-A*02:06): 5.47
- pKd (HLA-A*11:01 [4]; [21]): ≤ 4.70
- pKd (HLA-A*26:02 [12]; [21]): ≤ 4.70
- pKd (HLA-A*30:01; [21]): 5.49
- pKd (HLA-A*31:01 [13]; [21]): 5.64
- pKd (HLA-A*68:02 [14]): ≤ 4.70
- pKd (HLA-B*18:01 [6]; [21]): 6.05
- pKd (HLA-B*39:01 [15]): 5.52

Sequence: KYFDDVTAF
- pKd (HLA-A*01:01; [20]): ≤ 4.70
- pKd (HLA-A*02:01; [20]): ≤ 4.70
- pKd (HLA-A*11:01 [7]; [20]): ≤ 4.70
- pKd (HLA-A*24:03): 8.26
- pKd (HLA-A*68:02 [2]; [20]): ≤ 4.70
- pKd (HLA-A*69:01; [20]): ≤ 4.70
- pKd (HLA-B*07:02; [20]): ≤ 4.70
- pKd (HLA-B*08:01; source organism: Variola virus): ≤ 4.70
- pKd (HLA-B*08:03; source organism: Variola virus): ≤ 4.70
- pKd (HLA-B*15:09): ≤ 4.70
- pKd (HLA-B*39:01 [11]; source organism: Variola virus): ≤ 4.70
- pKd (HLA-B*57:01; [20]): ≤ 4.70
- pKd (HLA-B*58:01; [20]): ≤ 4.70
- pKd (HLA-C*14:02): ≥ 9.00
- pKd (HLA-A*02:03): 5.40
- pKd (HLA-A*26:02 [12]; [22]): ≤ 4.70
- pKd (HLA-A*31:01 [13]; [22]): 5.53
- pKd (HLA-B*15:01 [16]): 5.68
- pKd (HLA-B*15:17 [5]; [22]): 5.36
- pKd (HLA-B*18:01 [6]; [22]): 7.06

- pKd (HLA-A*68:23): 6.02
- pKd (HLA-B*15:42): ≤ 5.30
- pKd (HLA-B*45:06): ≤ 5.30
- pKd (HLA-B*83:01): 5.28
Sequence: KGPPAALTL
